What was measured:
[1] = target: T1, SARS-CoV-2 S protein RBD (residues 319-541 of the S protein), soluble, with C-terminal Avitag and His tag (SARS-CoV-2, UniProt P0DTC2 319-541); assay: biolayer interferometry (BLItz), […]
[2] = target: T1, SARS-CoV-2 S protein RBD (residues …); assay: biolayer interferometry (BLItz), […], global fit

Binder	Kd [1] [nM]	Kd [2] [nM]
C12K-D12 (antibody, V domains shown) VH: EVQLLESGGGLVQPGGSLRLSCAASGFRISDEDMGWVRQAPGKGLEWVSYIDNAGASTYYADSVKGRFTISRDNSKNTLYLQMNSLRAEDTAVYYCAKSLGPNPEFDYWGQGTLVTVSS VL: DIQMTQSPSSLSASVGDRVTITCRASQSISSYLNWYQQKPGKAPKLLIYYASNLQSGVPSRFSGSGSGTDFTLTISSLQPEDFATYYCQQGLGMPITFGQGTKVEIK	1	
C12K-G10 (antibody, V domains shown) VH: EVQLLESGGGLVQPGGSLRLSCAASGFRISDEDMGWVRQAPGKGLEWVSYIDNAGASTYYADSVKGRFTISRDNSKNTLYLQMNSLRAEDTAVYYCAKSLNSLGVFDYWGQGTLVTVSS VL: DIQMTQSPSSLSASVGDRVTITCRASQSIYDYLNWYQQKPGKAPKLLIYYASALQSGVPSRFSGSGSGTDFTLTISSLQPEDFATYYCQQGLGMPITFGQGTKVEIK	0.788	
G1K-C4 (antibody, V domains shown) VH: EVQLLESGGGLVQPGGSLRLSCAASGFRFDYEDMGWVRQAPGKGLEWVSSIDSHGASTYYADSVKGRFTISRDNSKNTLYLQMNSLRAEDTAVYYCAKYSHSVSYGPFDYWGQGTLVTVSS VL: DIQMTQSPSSLSASVGDRVTITCRASQYISYDLNWYQQKPGKAPKLLIYSASSLQSGVPSRFSGSGSGTDFTLTISSLQPEDFATYYCQQTNTYPQTFGQGTKVEIK		59

— patent US20240043506A1 (GARVAN INSTITUTE OF MEDICAL RESEARCH, published 2024)
